Data published in a protein production outcome set (Wang et al. 2014).

Assay: label from the status in PepcDB records
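Further: failed if final PepcDB status was selected cloned or expressed and not failed if soluble or beyond.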

Row | Sequence | protein production
1 | MVNLMILSGIVLLTCIISSKIFYKWGVPVLLVFIIIGMLFGSDGIGGIYFDNYNITYSLSSIALVFIMFYGGFCTEWKKARSVAIPSIMLSTLGVIITAGLTGLFCHFVLKTSIFEGLLLGCIVASTDAASVISILRSRNLKLKNNIDTLVEFESGSNDPTAYMLTSVMLIFITSNESVGIGLLGMIFKQIVFGVTVGLFLSKLAVFILRKVEFEIEGLYPIFTITVAILAYSISEFLGGNGYLSVFIAGIVMGNSKIPHKKSLNHFFDGLSWIMQIILFFMLGLLAFPSQLPSIAFEGIAISIFLILVGRPIAVFTILSWFKVPIKEQMFISWVGLRGAGSLVFAIYAITKTSAIENDIFHIIFFIALFSVAIQGTLIPWFAKKLDLICYEDDNHEDNMKNNIKDYIFEVKVGENNKVVNKAIMDSEIPDEILIVMIKRDNKVVIPKGFTIIKPNDTLVLTSENNEIMNSFLDEIR | failed
2 | MIDSLLDEMTLEEQVSVLSGADFWTTVPVERLGIPKIKVTDGPNGARGGGSLVGGVKATCYPVAIALGATWNPALIEAMGVSLAGQVKSKGASVLLAPTVNIHRSGLNGRNFECYSEDPMLTAALAVAYIKGVQSQGVAATIKHFAGNESEIERQTMSSDIDERALREIYLLPFEQAVKKAGVMAVMSSYNRLNGTYTSEHNWLLTDVLREQWGFDGIVMSDWFGSHSTSESVNAGLDLEMPGPTRDRGEKLVQAVRDGTVRPETVREAAGRILTLLERVGAFSSAPDLSEHAEDLPADRALIRKIGAEGAVLLKNDNILPLEKASLKRVAVIGPNAAVARVMGGGSAQINAHYTISPLEGIRAALQGTADVQHSVACGNSRLVKLFSQPVTVEYFKGVNCQGTPVAAEAVQTGEFFWFELPSPDLSLTDFSVRFTGTFTPQEDGPHLLGMTNSGLAKLYVDGELVVDGYTDWKRGENFFGTANDEIRHSVEMKAGRSYAIKVEYLSPPPEEYGIHITAIRFGIERILGEDAMVEAVECAKGADVALLFVGREGQWDTEGLDLPDMRLPGRQEELIERVSAVNPNCIVVLQTGGPVEMPWLEKVKAVLQVWYPGQELGNAVADMLFGDQEPGGRLPQTFPKQLSDNSAITNDPSIYPGMDGHVRYEEGVFVGYRHHDSRTIEPLFPFGFGLNYTSFEWDEPKASASEMTASGVTVSVRVSNTGKRAGSDVVQLYVEAPVSGVERPLKELRAFAKIALEPGESGEVTLEINPRDLSYYDVDAAAFRAPAGDYRLLIGAHAQDIRSAITIVNPQEWLGAVGDRTI | failed
3 | MRKFILYWALYGLIELIMYVWLFQVIGFWPLLFIQIASSAFGVFIFKRLGGNLFRNLRDGRTVAPYLLDSLCFFIAGFLLIIPGVITTILGLLIFIPFSRKLLKPKLTKWLGNQKKHTQYYYFDM | failed
4 | RFEHGTVLAECLSPASPDTSCELLKRAAKFLAYVHGSDDPASGRIGGVRKEVRNEVRMWLRAVLPDEPSDGANELFEEWWALLEGIGLPPQPRRDAHAFNWLVTDNDRIIAVDLEAARWRPMGYELAQLT | failed
5 | MAIEPSLISSLTWFAHVARHRSFTKAASEMGVTRAALSQHVKGLEKQLQVRLLNRTTRNMSLTEEGQRLLDTLHPSLSNIEQTLNSLNDLHIEPAGLIRISVSRTAARLLIEPHLGEFLSRYPKIRLELIMDDGLTNIVAEGMDAGIRLGVSLDEHMVAIPITPNLTNAIVGSPDYFKRYGKPETPNDLEHHNCLAYRFTSSGTLDHWSLTSPDVDKHTVIFEPKGNAVFNDDYSMLQAAMQGVGLIKHIDLWVLKYLEEGKLERVFVDWCKPFPGFYLYIPSRENMPKKIRVLMDFLIEKRAEL | failed
6 | RDFLPALGSMRPPIIIHRAGKKYGFTLRAIRVYMGDSDVYTVHHMVWHVEDGGPASEAGLRQGDLITHVNGEPVHGLVHTEVVELILKSGNKVAISTTPLENTSIKVGPARKGSY | failed
7 | MTSSDLPVMLFAAGFGTRMGDLTRTRPKPLIEVAGRPLVDHTLDLARAVSPPRIVANLHYLAPLLAAHLAPQGVLLSHEQPDILDTGGGLRQALPLLAAETVFTANSDAIWSGPNPFALLAEAWEPARMDALLMCVPVGQAIGHAGHGDFSRDAQGRIERGPGLIYGGVQIVKTGGLGDFDMPAFSLNLLWNRIGAAGRLFALEYPGRWCDVGHPGGIALAEEMLRDVLEHHHHHH | not failed
8 | AEPTLYGRYENIKVLEIGQTFKAKMDTGALTASLSAKDIELFQRDGDDWVRFRLATKGADDKVYEHKVSRISKIKGRAEGDDEDDEGINPAKRPVVDLELCLGNKKRTVEVNLVDRSHFNFPLLIGAKALREFGAAINPARRYTADEP | failed
9 | MFIKVKLPWDVTIPAEDMDTGLMLQRAIVIRLLEAFSKEKATKDLGYLITPTILENIGEGKIKEQTGEIQFPVVFNGICFKMFKGEIVHGVVHKVHKTGVFLKSGPYEIIYLSHMKMPGYEFIPGENPFFMNQYMSRIQIGARVRFVVLDTEWREAEKDFMALASIDGDNLGPF | failed
